# Measurements reported in the DeepSol protein solubility set.
# Assay: soluble on expression in E. coli; label from the status in PepcDB or PDB records
row,Sequence,soluble on expression in E. coli
1,MKPVSGSFSGYHPMATVSEQPVAKPRASESPQSESIEERPACLAPVAGAGQPLPGASSSLSAYLLLRRLDHRPVSQEGINALTPADEAVVEARNALPFGRGNVGVDAQKTDLESSIRTRSVMRLTRDAEAAGHTPMRGVDADMNWNVLVAMSGRIFGAGNCREHARIASFAYGGLAQESGRSSEEKIHLATKAGVDHVWVETDHPDADSSPMVIDPWANGSAILAEDSRFAKDRSAVTRTDTFDLSLAAEAGQIAKATAEEALAHTQGRLQQRLASERPDAVPLESGRYREEVSVLDDTFARRVGQKVNTADPRGMLNVELEAVGVAMSLGGEGVKPLTQEASQIVEKAKKFASPGGMPRDA,not soluble
2,MKIGIIGATGKAGSRILKEALDRGHEVTAIVRNAAKITEENVKVLEKDVFSLTSNDLQAFDVVVNAFGAPAGHDHLHVDAGNVLIEAMKGAPNTKLVVVGGAGSLFVDEEKTTRVFETPGFPEEYLATAQNQGKNLEILQQTNDITWTFISPSALFALGKRTGSYKAGKDNLLVNAKGDSYVSYEDFAVAALDEIENPKHVNERFTVVSEAELEHHHHHH,soluble
3,GPGSMRAEETAPSIPPPPTISPQKTSHRTAVVPSDPSNRPTQSLRSTKELMRQRRSTVVPRITDIFALGQLHEKGERVGSRNVCPPTWKQRMSLAGQFTTFCRTHEQPINEKSCAVILMAILDVAPSTRPQHARMLRSVLRMDRTPLDMMILGLKETAARSETKQQRQQSRAIYRRCACASSGRNSMAPPMRTTVNENETARTLRRSCFSATK,soluble
4,MGSDKIHHHHHHMLNWSHLPAIKPKYLAITQFIKQAIQNGDLLPGQRLPAERELATLLHVDRSTVTRALLDLAAVGILVKKRGSGTFVAQLPHVNQLANKVNWQAFLENTTATRHATYQRKLAKARTTATVPLIDAAANELPTNLIPQLGTLTLDWQGFLTAQQQEERTGYLPLMQTINRYHTARQQFTLDRQSLIITGGAQQALLLILNSLLQPGDAVAFVTPSYFSASAVFSAAGVRAYTIPTTTLGLDLTALETAIIKHRIKLLILNPTLQNPTGRILPLAERQAILALCQRYQVAIVEDDVFGWLVDRDIAVPPFKALAPDNVIYISSLSKLLGSNTRIGWIVAPQAIGERIRQVQKNLDLVPSLLAQVMVDHALNSPEFSLGVTQLTTQLAQRRQNVTAILRQLRPDWHFVTPLGGFYLWVTQADRNVFEHLLEQHLLVTPGPIYGADRSAFRFNFAGLDYRQQRLLIQRLS,not soluble
5,MVKLAEFSRTATFAWSHDKIPLLVSGTVSGTVDANFSTDSSLELWSLLAADSEKPIASLQVDSKFNDLDWSHNNKIIAGALDNGSLELYSTNEANNAINSMARFSNHSSSVKTVKFNAKQDNVLASGGNNGEIFIWDMNKCTESPSNYTPLTPGQSMSSVDEVISLAWNQSLAHVFASAGSSNFASIWDLKAKKEVIHLSYTSPNSGIKQQLSVVEWHPKNSTRVATATGSDNDPSILIWDLRNANTPLQTLNQGHQKGILSLDWCHQDEHLLLSSGRDNTVLLWNPESAEQLSQFPARGNWCFKTKFAPEAPDLFACASFDNKIEVQTLQNLTNTLDEQETETKQQESETDFWNNVSREESKEKPSVFHLQAPTWYGEPSPAAHWAFGGKLVQITPDGKGVSITNPKISG,soluble
6,MSELMQAILDSEEKHDLRGFISELRQQDKNYLLRNDILNVYAEYCSKCQKPETSYKFSNLSKLIYYTQEIIQEDSNFCFIIRPKIAAQEVYRLTADLDVEPMTVQELLDLRDRLVNKFHPYEGDILELDFGPFYDYTPTIRDPKNIGKGVQYLNRYLSSKLFQDSQQWLESLFNFLRLHNYNGIQLLINHQIQSQQQLSQQVKNALNFVSDRPNDEPYEQFRLQLQTMGFEPGWGNTASRVRDTLNILDELIDSPDPQTLEAFISRIPMIFRIVLVSAHGWFGQEGVLGRPDTGGQVVYVLDQAKNLEKQLQEDAILAGLEVLNVQPKVIILTRLIPNSDGTLCNQRLEKVYGTENAWILRVPLREFNPKMTQNWISRFEFWPYLETFAIDSERELLAEFQGRPDLIVGNYTDGNLVAFLLTRRMKVTQCNIAHALEKSKYLFSNLYWQDLEEKYHFSLQFTADLIAMNAANFVISSTYQEIVGTPDSIGQYESYKCFTMPELYHVVNGIELFSPKFNVVPPGVNENSYFPYTQTQNRIESDRDRLEEMLFTLEHHHHHH,not soluble
7,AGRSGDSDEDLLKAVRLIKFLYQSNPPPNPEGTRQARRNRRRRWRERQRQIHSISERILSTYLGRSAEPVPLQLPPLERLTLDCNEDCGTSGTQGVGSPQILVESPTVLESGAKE,soluble
8,MAHHHHHHMSITSRFIGGVKHLLKGGSMKYLAAGEPYCPFGEAFGLTILPEYILEDDASNLRKGYVDVYTRASDRIILNDGRFQLPPLPPASFMPLLERLEQDNVVPKSWLNNQTANLYEPGDFIRAHIDNLFVYDDIFAICSLGSNCLLRFVHVQNGEELDVMVPDRSVYIMSGPARYVYFHMVLPVEAQRFSLVFRRSIMESDGGF,not soluble
9,MVVNVFISAVTTDTLSRKEAVAWVNNLLKSHFTKVEEMASGAAYCQLTHLLFNAINLKKVKFNPRSEPDVLNNWKVLTTTWKDLGIDKPVDVEKMKKAKFQDNMEFLQWFYKFYNANLTTEPEEYDAVGARFGEDLPALKGSTGSRPVAAPARPVAAAPPKPRPAAPAVAAPAVKASVPPTVRNGTRPAPATSAGTRRADPSASEELLKQEIEKHKAASDEWETTAKEMETEREYYYSILQRVESLANEAEESGSSTVDVAALKTILYAGNEDTEQVDEIENEHLVESLQANLDDTETF,soluble
10,MGSDKIHHHHHHMPETIKNISKKDAILKAALQLFSHRSFDGTTIPEIARVANVGAGTIYRYFISKEDLVNELFVRVLDDFTEHLQVGLHGQMDTRTRFHHLFNNAWNYVMNNVEAFLFINLNDEATYLNDRSRKSFSRMWDYIAEMVEQGADKGELIKLDPKFVASLVYGPLIPISKRFNNDNRQASQALAKALEEATWRAISTD,not soluble
11,MGSDKIHHHHHHMLINADFSCRAALAPEHYQWVQSPQNGVERVMLDRVGAEKARATSIVRYAPESNFPYHLHPGGEEILVLSGTFSADNSDYPAGWYLRNPPKSGHQPYSNVGAVIFVKLWQMTADETHHVAIDTKDAKNWHRQGNREVCHLFLDTSEQVSLQRIEAGEILFPETIARGAELLVIEGELIEDSMLDKGQSYKKGSWIRLPVDATSPIVAGANGATVYLKTGHLSRIIGIDVY,not soluble
12,MPVSNEIWQLLSRLAEDIRPIGVNISAGEPNRLWTEAKWRALLERFPGERFVVLSGPDDLDAKRRLEEQCPNAVASPPTRNLYEASCIVAKLRLLVTPDTSMVHVASATGTPVAGLYREAPQDISRFGPYAIPYEIVISPTGEVSGIKPESVADAVRRLMARAIGREALEHHHHHH,not soluble
13,PSIKSGTILHAWNWSFNTLKNNMKDIHDAGYTAIQTSPINQVKEGNKGDKSMGNWYWLYQPTSYQIGNRYLGSEEEFKEMCAAAEEYGVKVIVDAVINHTTSDYAAISNEIKSISNWTHGNTQIKNWSDRWDVTQNSLLGLYDWNTQNTQVQSYLKRFLERALNDGADGFRYDAAKHIELPDDGNYGSQFWPNITNTSAEFQYGEILQDSASRDAAYANYMNVTASNYGHSIRSALKNRNLSVSNISHYASDVSADKLVTWVESHDTYANDDEESTWMSDDDIRLGWAVIASRSGSTPLFFSRPDGGGNGVRFPGKTQIGDRGSALFEDQAIVAVNTFHNVMAGQPEELSNPNGNNQIFMNQRGSKGVVLANAGSSSVSINASTKLPDGSYDNKAGTGSFQVRDGKLTGTINARSVAVLYPD,soluble
14,MSLIVNFHKVNLKKKYPLQISRGTHSKSQNLFVEIIKDGITGWGESAPGKTEGASNADEVEKWLLKLIDTGIDSLSIYEIFQRSKDLNIPPCVHAAIDIALWDWKAKKAGLPLNNLLGLPTPSTPTSLTIGINPPEIIKERVEMLLSNPQIKALKIKLGSPDGIEYDKSIYSQVLESTKKSNISIRVDANGGWSLDEAKLMMKWLAERKAEYIEQPLVEGEEDKLKYLFKSRPLPIFIDESCRFSEDVARHFEYVDGVNLKLMKCGGITEALRILNVAKSHNLKTMIGCMSESSISISAGASISGIIDYVDLDSHYNLDPDPSEGATMIDGITMNDNKPGHGSKLKIENYAEGHHHHHH,soluble
15,MGSDKIHHHHHHMKNNETKVPTSRLSRLSKMGGLASRLAGNVLLEGAKQLSQGKSPSMQQLMMTPKNIGHVADKLSQLRGAAMKVGQMLSMDAGDLVPPELAEILAKLRSDAKAMPHKQLTQLLVQHWGHDWLAPFAQFELRPFAAASIGQVHLAYLDTGEKLAIKIQYPGIRDSIDSDIDNVASLLKVSRLIPANVKLDTLLAEAKAQLHNEADYHFEAQQIALYQQQLGDSPHFIVPKVYPKLSNNSILCMQFVEGVAIESVEHSPQDVRDKVASALMELCFKELFCFQLVQSDPNFANFQYQADSQKIVLLDFGATRTISDTLSQGYMQLMQGAIADDKQQMIQAAQQIGFFQDAIDPQQKQLIIDIFYQACEPLRTQGTYDFGASNLAKRITQAGKAMSTQQNEWHTPPTDAIFIHRKLAGMYLLAAKLNANINVHALFNQVVNSKNE,not soluble
16,MGSDKIHHHHHHMQHIIKTALQQTFNYKTNKSIYNILVGKKSHQTFFDACSQQQLSLYHSLPLLKYPSFELFLEKINEFNAEMEIMLHPRYTFESMGQTFQAIQLLVQTMSNTKQHVFHFVPISQNNKIQETVKIVYNYIKENQLQIDFENELHNLFKAITLKGPCYLHYYLQGYDEPMYTRQQVSLIEKLSQQQLFEYEMNNLVTMMFELESGEYTILSKIIMKPTLLNQTYITYTKLLEQFTMEDIAAQQQVKINTIEDHVLEILIKGYMSNYDDYVELEDQLQFLNFYQQHRGERLKFYKEQFDTLSYFQLKVLIVGFERGDLNVA,not soluble
17,MIRLAHADDLLILQEIERAAGQAFRALGMDSIADDEPLSIDELNSYATAGRAWVSVDGLDYPVAYLLADIVDGAGHVEQVSVHPDQAHQGLGRELLHAARVWTRGHGMQRQTLSTFRDVPWNAPYYRRLGFDVLDAGSWGPQLAHLMEHEAELGLTRWPRVAMWRPAVPPK,soluble
18,MGSDKIHHHHHHMITVNDLSVQFGKRILFQDVNLTFTPGNCYGIIGANGAGKSTMLRVISKQLDPTRGTVTLGPGERLSVLSQDHFAFDENTVMDTVLMGHSVLWAIMEEKNALYAKPDFSDEDGTRVAELEDKFAEMEGWNAESDAAMLLSGLGIKEDLHYMLMKDLSGKQKVRVLLARALYGKPDNLLLDEPTNDLDLETVSWLENYLSNFENTVLVVSHDRHFLDSVCTHTVDIDFGKVQQFSGNYSFWYESSQLALRQQQQQNKKAEEKRKELEEFIRRFSANVAKSKQTTSRKKMLEKLNIEEITPSSRRYPGILFTPGREPGNKILEVKGLTKSIEGQLLFRDLNFNVEKDDKIVFISRDPRAMTALFSIINGEMTPDEGTYEWGQTITTAYLPLDNSGYFNTDLNLVEWLSQFAKDTNEVFLKGFLGRMLFSGEEILKKASVLSGGEKMRCMISKMMMLDANTLVLDTPTNHLDLESIQAFNNTLKTYRGNVLFASHDHEFIQTVANRIIELTPNGIIDKIMDYDDYITDPIVAEMRQKLYGQ,not soluble
19,ELPKKRELCKFYITGFCARAENCPYMHGDFPCKLYHTTGNCINGDDCMFSHDPLTEETRELLDKMLADDAEAGAEDEKEVEELKK,soluble
